Legend:
[1] = molecular target: FcRn receptor (recombinant protein human FcRnα and β2-microglobulin) (human) (UniProt P55899); experiment: ELISA at pH 6, coated FcRn, 10 µg/ml
[2] = molecular target: cynomolgus monkey PD1 antigen (cynomolgus monkey) (UniProt B0LAJ3); experiment: ELISA, coated cynomolgus PD1
hCD16aV (human) [3] = molecular target: hCD16aV (human) (UniProt P08637); experiment: ELISA, coated hCD16aV, 0.5 µg/ml
[4] = molecular target: human CD64 receptor (hFcγRI) (human) (UniProt P12314); experiment: ELISA, coated hCD64
human CD64 receptor (hFcγRI) (human), sequence (P12314 16-288 limits assumed): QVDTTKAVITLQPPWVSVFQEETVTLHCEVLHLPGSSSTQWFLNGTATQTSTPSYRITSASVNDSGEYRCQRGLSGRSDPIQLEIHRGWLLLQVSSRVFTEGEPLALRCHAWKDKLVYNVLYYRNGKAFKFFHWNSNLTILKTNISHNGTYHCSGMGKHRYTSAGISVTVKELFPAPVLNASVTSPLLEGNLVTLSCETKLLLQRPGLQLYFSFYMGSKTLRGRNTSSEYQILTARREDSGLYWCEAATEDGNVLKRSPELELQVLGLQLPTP

[5] = molecular target: murine PD1 antigen (murine) (UniProt Q02242); experiment: ELISA, coated murine PD1
murine PD1 antigen (murine), sequence (Q02242 25-167 limits assumed): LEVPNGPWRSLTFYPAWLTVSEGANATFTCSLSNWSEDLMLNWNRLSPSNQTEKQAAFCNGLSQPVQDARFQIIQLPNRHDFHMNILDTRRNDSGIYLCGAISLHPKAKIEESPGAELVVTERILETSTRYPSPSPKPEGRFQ

[6] = molecular target: cynomolgus monkey PD1 antigen (cynomolgus monkey) (UniProt B0LAJ3); experiment: ELISA, coated cynomolgus PD1, 0.2 µg/ml
hCD32aR (human) [7] = molecular target: hCD32aR (human) (UniProt P12318); experiment: ELISA, coated hCD32aR, 0.5 µg/ml
[8] = molecular target: human PD1 antigen (recombinant protein) (human) (UniProt Q15116); experiment: ELISA, coated human PD1, 0.2 µg/ml
human PD1 antigen (recombinant protein) (human), sequence (Q15116 25-167 limits assumed): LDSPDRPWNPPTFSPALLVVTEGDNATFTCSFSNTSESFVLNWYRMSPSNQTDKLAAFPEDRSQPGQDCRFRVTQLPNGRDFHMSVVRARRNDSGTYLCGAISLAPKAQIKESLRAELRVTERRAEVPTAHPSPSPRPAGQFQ

hCD32aH (human) [9] = molecular target: hCD32aH (human) (UniProt P12318); experiment: ELISA, coated hCD32aH, IgG aggregated with anti-CK F(ab')2-HRP
hCD32aH (human), sequence (P12318 36-218): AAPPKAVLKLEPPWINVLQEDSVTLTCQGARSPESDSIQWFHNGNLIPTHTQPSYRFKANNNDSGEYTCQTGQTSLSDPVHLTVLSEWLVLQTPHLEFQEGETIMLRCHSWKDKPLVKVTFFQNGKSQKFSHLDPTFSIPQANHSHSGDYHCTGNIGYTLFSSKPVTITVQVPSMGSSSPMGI

[10] = molecular target: human PD1 antigen (recombinant protein) (human) (UniProt Q15116); experiment: ELISA, coated human PD1
[11] = molecular target: human CD64 receptor (hFcγRI) (human) (UniProt P12314); experiment: ELISA, coated hCD64, 0.5 µg/ml
hCD32aR (human) [12] = molecular target: hCD32aR (human) (UniProt P12318); experiment: ELISA, coated hCD32aR, IgG aggregated with anti-CK F(ab')2-HRP
hCD32b (human) [13] = molecular target: hCD32b (human) (UniProt P31994); experiment: ELISA, coated hCD32b, 0.5 µg/ml
hCD32b (human), sequence (P31994 46-217): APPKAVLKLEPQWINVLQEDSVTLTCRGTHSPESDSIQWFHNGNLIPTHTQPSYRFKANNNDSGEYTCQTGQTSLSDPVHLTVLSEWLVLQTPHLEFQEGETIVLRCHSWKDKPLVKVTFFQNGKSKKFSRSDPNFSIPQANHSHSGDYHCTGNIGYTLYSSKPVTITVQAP

hCD32aH (human) [14] = molecular target: hCD32aH (human) (UniProt P12318); experiment: ELISA, coated hCD32aH, 0.5 µg/ml
hCD32b (human) [15] = molecular target: hCD32b (human) (UniProt P31994); experiment: ELISA, coated hCD32b, IgG aggregated with anti-CK F(ab')2-HRP
[16] = molecular target: FcRn receptor (recombinant protein human FcRnα and β2-microglobulin) (human) (UniProt P55899); experiment: ELISA at pH 6, coated FcRn
hCD16aV (human) [17] = molecular target: hCD16aV (human) (UniProt P08637); experiment: ELISA, coated hCD16aV, IgG aggregated with anti-CK F(ab')2-HRP

FcRn receptor (recombinant protein human FcRnα and β2-microglobulin) (human), sequence (P55899 24-297 limits assumed, chain 1 of 2): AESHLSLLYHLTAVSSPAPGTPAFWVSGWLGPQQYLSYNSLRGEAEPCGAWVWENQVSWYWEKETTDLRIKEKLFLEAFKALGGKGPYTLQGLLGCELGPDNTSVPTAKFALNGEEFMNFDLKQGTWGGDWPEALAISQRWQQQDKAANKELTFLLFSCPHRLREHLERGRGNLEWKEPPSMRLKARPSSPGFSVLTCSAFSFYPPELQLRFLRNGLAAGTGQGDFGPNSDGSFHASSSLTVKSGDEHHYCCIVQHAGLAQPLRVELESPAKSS
FcRn receptor (recombinant protein human FcRnα and β2-microglobulin) (human), sequence (P61769 21-119 limits assumed, chain 2 of 2, further chain): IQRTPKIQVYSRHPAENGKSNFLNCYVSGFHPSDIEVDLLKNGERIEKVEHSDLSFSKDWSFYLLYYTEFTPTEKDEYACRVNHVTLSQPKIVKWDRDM
cynomolgus monkey PD1 antigen (cynomolgus monkey), sequence (B0LAJ3 entry or part of it limits assumed, form in doubt): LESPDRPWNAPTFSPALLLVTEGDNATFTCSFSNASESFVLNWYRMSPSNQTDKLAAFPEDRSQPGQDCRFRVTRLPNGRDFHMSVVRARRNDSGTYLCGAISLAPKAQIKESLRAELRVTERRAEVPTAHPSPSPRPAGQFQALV

## IgG1_C6A_74 nivolumab (V259I/N315D/N434Y) (antibody)
[1]
  OD Ratio variant/IgG1 WT: 7.47
[2]
  OD 450 nm at 0.2 µg/ml: 2.28 OD 450 nm
hCD16aV (human) [3]
  OD Ratio variant/IgG1 WT: 1.31
[4]
  OD 450 nm at 0.5 µg/ml: 1.24 OD 450 nm
[5]
  OD 450 nm at 0.2 µg/ml: 0.235 OD 450 nm
[6]
  OD Ratio variant/IgG1 WT: 0.95
hCD32aR (human) [7]
  OD Ratio variant/IgG1 WT: 0.65
[8]
  OD Ratio variant/IgG1 WT: 1.1
hCD32aH (human) [9]
  OD 450 nm at 0.5 µg/ml: 1.65 OD 450 nm
[10]
  OD 450 nm at 0.2 µg/ml: 2.87 OD 450 nm
[11]
  OD Ratio variant/IgG1 WT: 0.98
hCD32aR (human) [12]
  OD 450 nm at 0.5 µg/ml: 2.43 OD 450 nm
hCD32b (human) [13]
  OD Ratio variant/IgG1 WT: 0.24
hCD32aH (human) [14]
  OD Ratio variant/IgG1 WT: 1.02
hCD32b (human) [15]
  OD 450 nm at 0.5 µg/ml: 0.481 OD 450 nm
[16]
  OD 450 nm at 10 µg/ml: 2.37 OD 450 nm
hCD16aV (human) [17]
  OD 450 nm at 0.5 µg/ml: 1.07 OD 450 nm

## IgG1_C6A_74Del294 nivolumab (V259I/Del294/N315D/N434Y) (antibody)
[1]
  OD Ratio variant/IgG1 WT: 7.27
[2]
  OD 450 nm at 0.2 µg/ml: 2.29 OD 450 nm
hCD16aV (human) [3]
  OD Ratio variant/IgG1 WT: 0.15
[4]
  OD 450 nm at 0.5 µg/ml: 0.0574 OD 450 nm
[5]
  OD 450 nm at 0.2 µg/ml: 0.31 OD 450 nm
[6]
  OD Ratio variant/IgG1 WT: 0.96
hCD32aR (human) [7]
  OD Ratio variant/IgG1 WT: 0.06
[8]
  OD Ratio variant/IgG1 WT: 1.06
hCD32aH (human) [9]
  OD 450 nm at 0.5 µg/ml: 0.0798 OD 450 nm
[10]
  OD 450 nm at 0.2 µg/ml: 2.77 OD 450 nm
[11]
  OD Ratio variant/IgG1 WT: 0.05
hCD32aR (human) [12]
  OD 450 nm at 0.5 µg/ml: 0.242 OD 450 nm
hCD32b (human) [13]
  OD Ratio variant/IgG1 WT: 0.06
hCD32aH (human) [14]
  OD Ratio variant/IgG1 WT: 0.05
hCD32b (human) [15]
  OD 450 nm at 0.5 µg/ml: 0.132 OD 450 nm
[16]
  OD 450 nm at 10 µg/ml: 2.3 OD 450 nm
hCD16aV (human) [17]
  OD 450 nm at 0.5 µg/ml: 0.121 OD 450 nm

## IgG1_WT nivolumab (from UniProt P01857 1-330) (antibody)
[4]
  OD 450 nm at 0.5 µg/ml: 1.26 OD 450 nm
[16]
  OD 450 nm at 10 µg/ml: 0.317 OD 450 nm

## IgG1_WT pembrolizumab (from UniProt P01857 1-330) (antibody)
[4]
  OD 450 nm at 0.5 µg/ml: 0.777 OD 450 nm
[16]
  OD 450 nm at 10 µg/ml: 0.379 OD 450 nm

— patent US20190218292A1
